# Results as given in the nanobody polyreactivity screen of Harvey et al. (2022).
# Test: yeast display, Sf9 membrane polyspecificity reagent, FACS + sequencing; frameworks hold sequencing errors
# Summary of the method: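 Using colony PCR, genes from sorted yeast display clones were amplified, then sequenced on MiSeq at 2 × 250 and filtered by CDR length. The clones had been stained with 10% biotinylated, detergent-solubilized Sf9 membrane reagent for 1 hour at 4 °C and sorted by FACS into low and high (top ~1%) gates on anti-HA and streptavidin fluorescence. Polyreactivity labels come from the gate of origin.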
row,Sequence,polyreactivity (PSR sort gate)
1,QVQLVESGGGLVQAGGSLRLSCAASGRTFNPYAMGWYRQAPGKERELVAVISYIGGSTYADSVKGRFTISRDNEKNTVYLQMNSLKPEDTAVYYCNRATFGQWGCDYWGQGTQVTVSS,high polyreactivity
2,QVQLVESGGGLVQAGGSLRLSCAASGRTFNPYSLGWYRQAPGIVRELVAAISYRGGSTYNADSVKGRFTISRDNAKNTVYLQLNSLKPEDTAVYYCAKRGYASGSKWDYGYWGQGTQVTVSS,high polyreactivity
3,QVQLVESGGGLVQAGGSLRLSCAASGRTFNRYGMGWYRQAPGKERELVASITSGGSTNYADSVKGRFTISRDNAKNTVYLQMNSLKPEDTAVYYCAKRSIGRYPRTYDYWGQGTQVTVSS,low polyreactivity
4,QVQLVESGGGLVQAGGSLRLSCAASGRTFNSNAMGWYRQAPGKERELVAAISGSGGSTYYADSVKGRFTISRDNAKNTVYLQMNSLKPEDTAVYYCAAAARQWKKYDYWGQGTQVTVSS,high polyreactivity
5,QVQLVESGGGLVQAGGSLRLSCAASGRTFNSYAMGWYRQAPGKEWELVASISSGGSTYYADSVKGRFTLSRDNAKNTDYLQMNSLKPEDTAVYYCAAKSVAYYSYFRRDYWGQGTQVTVSS,low polyreactivity
6,QVQLVESGGGLVQAGGSLRLSCAASGRTFNTYAMGWYSQAPGKERELVAAISRRGGSTYYADSVKGRFTISRDNAKNTDYLQMNSLKPEDTAVYYCAAGNSVGLGWGQGTQVTVSS,high polyreactivity
7,QVQLVESGGGLVQAGGSLRLSCAASGRTFNWNALGWYRQAPGKERELVATISRRGGSTYYADSVKGRFTISRDNAKNTVYLQMNSLKREDTAVYYCITAGRYGYDYWGQGTQVTVSS,high polyreactivity
8,QVQLVESGGGLVQAGGSLRLSCAASGRTFNWYAMGWYRQAPGKERELVAAIRVNGGITYYADSVKGRFTISRDNAMNTVYLQMNSLKPEDTAVYYCAVYSRQGLGYWGQGTQVTVSS,high polyreactivity
9,QVQLVESGGGLVQAGGSLRLSCAASGRTFNYYAMGSYRQAPGKERELVAAISWSGTPTYYADSVKGRFTISRDNAKNTVYLQMNSLKPEDTAVYYCAAHSGSTYKYWGQGTQVTVSS,low polyreactivity
10,QVQLVESGGGLVQAGGSLRLSCAASGRTFNYYAMGWYRQAPGKERELVAAISASGGRTYYADSVKGRFTISRDNAKNTVYLQMNSLKPAETAVYYCAKVSSFDAQFDYWGQGTQVTVSS,high polyreactivity
11,QVQLVESGGGLVQAGGSLRLSCAASGRTFNYYAMGWYRQAPGKERELVAAISRSGGSTYYADSVKGRFTISRDNAKNTVYLQMNSLKPEDTAVYYCAVAWNVRGVGARQRYIYGYWGQGTQVTVSS,high polyreactivity
12,QVQLVESGGGLVQAGGSLRLSCAASGRTFNYYAMGWYRQAPGKERELVAAISWSGTPTYYADSVKGRFTISRDNAKNTVYLQMNSLKPEDTAVYYCAAGYNYTSYADLDYWGQGTQVTVSS,low polyreactivity
13,QVQLVESGGGLVQAGGSLRLSCAASGRTFNYYAMGWYRQAPGKERELVAAITSGSTTYYADSVKGRFTISRDNAKNTVYLQMNSLKPEDTAVYYCATAWRPADNSWGQGTQVTVSS,low polyreactivity
14,QVQLVESGGGLVQAGGSLRLSCAASGRTFNYYARGWYRQAPGKERELVAAISKRGGSTYYADSVKGRFTISRDNAKNTVYLQMNSLKPEDTAVYYCNAAQSVELGYDYWGKGTQVTVSS,high polyreactivity
15,QVQLVESGGGLVQAGGSLRLSCAASGRTFPAYAMGWYRQAPGKERELVASIDLSGGSTSYADSVKGRFTISRDNAKNTVYLQMNSLKPEDTAVYYCAKKGRWSSASSGYYYWGQGTQVTVSS,low polyreactivity
16,QVQLVESGGGLVQAGGSLRLSCAASGRTFPCYAMGWYRQAPGKEREFVAAITASGDSTYYADSVKGRFTISRDNAKNTVYLQMNSLKPEDTAVYYCAADLPVWYVTRYDYWGQGTQVTVSS,low polyreactivity

row,Sequence,polyreactivity (PSR sort gate)
1,QVQLVESGGGLVQAGGSLRLSCAASGRTFPEYDMGWYIQAPGKERELVAAISTSGGSTYYADSVKGRFTISRDNAKNTVYLQMNSLKPEDTAVYYCAAQVTSIWGFTYAYRYDYWGQGTQVTVSS,low polyreactivity
2,QVQLVESGGGLVQAGGSLRLSCAASGRTFPGNAMGWYRQAPGKERELVAAISYRGGSTYYADSVKGRFTISRDNAKNTVYLQMNSLKPEDTAVYYCAAASERTGYYYWGQGTQVTVSS,high polyreactivity
3,QVQLVESGGGLVQAGGSLRLSCAASGRTFPGNAMGWYRQAPGKERELVAGISYRGGSTYYADSVKGRFTISRDYGKNTVYLQMNSLKPEDTAVYYCARDYSRHKGDYWGQGTQVNVSS,low polyreactivity
4,QVQLVESGGGLVQAGGSLRLSCAASGRTFPGYAMGWYRQAPGKERELVASITSRGGITNYADSVKGRFTISRDIAKNTVYLQMLCLKPEDTSVYYCAAVSFWTMDYWGQGTQVTVSS,low polyreactivity
5,QVQLVESGGGLVQAGGSLRLSCAASGRTFPGYAMGWYRQAPGKERELVATITFSDGSTYYADSVKGRFTISRDNAKNSVYLQMNSLKQEDTAVYYCNARRSYFLRYGVNYWGQGNQVTVSS,low polyreactivity
6,QVQLVESGGGLVQAGGSLRLSCAASGRTFPGYAMGWYRQAPGKETELVATISSADSTNYADSVKGRFTISRDNAKNTVYLQMNSLKPEDTAVYYCAERYGRNGAAAQYTGWYRYDYWGQGTQVTVSS,low polyreactivity
7,QVQLVESGGGLVQAGGSLRLSCAASGRTFPHYAMGWYRQAPGKERELVAAISSSGGSTYYADSVKGRFTISRDNAKNTVYLQMNSLKPEDNAVYYCAARYVDDGWKYDYWGQGTQVTVSS,low polyreactivity
8,QVQLVESGGGLVQAGGSLRLSCAASGRTFPINAMGWYRQAPGKERELVASIRWTDGTTYYADSVKGRFTISRDNAKNTVYLQMNSLKPEDTAVYYCAADAEGSASKYDYWGQGTQVTVSS,low polyreactivity
9,QVQLVESGGGLVQAGGSLRLSCAASGRTFPLNAMGWYRQAPGKERELVASITKSTGNTRYADSVKGRFTISRDNAKNTVYLQMNSLKPEDTAVYYCAARSYRDRYYWGQGTQVNVSS,high polyreactivity
10,QVQLVESGGGLVQAGGSLRLSCAASGRTFPLYAMGWYRQAPGKERELVAAISLSGGRTYYADSVKGRFTISRDNAKNTVYLQMNSLKPEDTAVYYCAARGTLSAQVGIRRYDYWGQGTQVTVSS,low polyreactivity
11,QVQLVESGGGLVQAGGSLRLSCAASGRTFPRNAMGWSRQAPGKERELVAAISSTGDSTYYADSVKGRFTISRDNAKNTVYLQMNSLKPEDTAVYYCHYPYDYWGKGTQVTVSS,low polyreactivity
12,QVQLVESGGGLVQAGGSLRLSCAASGRTFPRNGMGWYRQAAGKERELVAAICWSGGRTYYADSVKGRFTISRDNAKNTVYLQMNSLKPEDTAVYYCNALYFRKGGYWGQGTQVTVSS,high polyreactivity
13,QVQLVESGGGLVQAGGSLRLSCAASGRTFPRNGMGWYRQAPGTERELVAAISWSGGRTYYADSVKGRFTISRDNAKNTVYLQMNSLKPEDTAVYYCNALYFRKGGYWGQGTQVTVSS,high polyreactivity
14,QVQLVESGGGLVQAGGSLRLSCAASGRTFPRYAMGWYRPAAGKVWELVAAISVRAGITYYADSVKGRFTISRDNAKNTVYFQMNSLKPEDTAVYYCAKDHWTTSYDEGDYWGQGTQETVSS,low polyreactivity
15,QVQLVESGGGLVQAGGSLRLSCAASGRTFPRYAMGWYRQAPGKERELVAGISWSGGRTYYADSVKGRFTISRDNAKNTVYLQMNSLKPEDTAVYYCAVVSKNLSYRTTFYYWGQGTQVTVSS,high polyreactivity
16,QVQLVESGGGLVQAGGSLRLSCAASGRTFPRYTMGWYRQAPGKERELVAASATGGSTYYADSVKGRFTISRDNAKNTVYLQMNSLKPEDTAVYYCAAYKLYPYYSTEYDYWGQGTQVTVSS,high polyreactivity
